Results as given in article PMC11246429 (2024).
One block for each molecule: values may come before it.

Assays:
[1] = target: AP180 segment 471–700 (rat); assay: NMR titration; unlabeled AP2α titrated into 15N labeled AP180 (50 μM AP180 471–700, 90 μM AP180IDR); 1H-15N HSQC and 15N R1ρ; residue-wise KD from R1ρ against AP2α concentration; NMR buffer 50 mM Na-phosphate pH 6, 150 mM NaCl, 2 mM DTT, 25 °C
AP180 399-598 (rat) = assay: ITC; AP2β2 mutants titrated into 0.04 mM AP180 399-598 in the cell; 25 °C; 150 mM NaCl, 50 mM Na-phosphate, 0.2 mM TCEP, pH 7.5; 1:1 binding model
[2] = target: AP180 IDR (residues 281–898 of AP180) (rat); assay: NMR titration; unlabeled CHCTD (in 50 mM Na-phosphate pH 7.5, 150 mM NaCl, 2 mM DTT) titrated into 15N labeled AP180 in NMR buffer (pH 6); 1H-15N HSQC and 15N R1ρ; residue-wise KD from a linear fit of R1ρ against CHCTD concentration under the assumption of weak binding; 25 °C
[3] = target: AP180 430–500 (extended interaction motif, EIM) (rat); assay: ITC; 0.03 mM AP180 construct in the cell (0.04 mM AP180 399–598 for the AP2β2 mutants), 2 μl steps of 0.3 mM AP2β2; 25 °C; 150 mM NaCl, 50 mM Na-phosphate, 0.2 mM TCEP, pH 7.5; 1:1 binding model
[4] = target: AP180 IDR (residues 281–898 of AP180) (rat); assay: as above
[5] = target: AP180 segment 399–598 (rat); assay: as above
[6] = target: AP180 segment 399–598 (rat); assay: NMR CPMG relaxation dispersion; 100 μM 15N AP180 399–598 with 10 μM unlabeled AP2β2; 600 and 850 MHz; 22 residues fitted together with a two-state exchange model (ChemEx); KD calculated from pB under the assumption of 1:1 stoichiometry
[7] = target: T1, AP2 β2-appendage domain with linker (residues 617–951) (bovine, UniProt Q08DS7 617-951); assay: ITC
T1 chain: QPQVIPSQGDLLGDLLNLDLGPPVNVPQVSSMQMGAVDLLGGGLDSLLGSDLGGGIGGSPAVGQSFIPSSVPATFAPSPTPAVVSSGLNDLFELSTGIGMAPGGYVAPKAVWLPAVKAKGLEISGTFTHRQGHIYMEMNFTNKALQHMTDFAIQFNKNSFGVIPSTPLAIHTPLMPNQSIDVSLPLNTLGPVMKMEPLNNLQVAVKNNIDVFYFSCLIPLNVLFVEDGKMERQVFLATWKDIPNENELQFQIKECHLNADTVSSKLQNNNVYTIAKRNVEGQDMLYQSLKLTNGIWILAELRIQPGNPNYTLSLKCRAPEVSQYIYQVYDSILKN

Sequence of AP180 segment 471–700 (rat) (Q05140 whole entry): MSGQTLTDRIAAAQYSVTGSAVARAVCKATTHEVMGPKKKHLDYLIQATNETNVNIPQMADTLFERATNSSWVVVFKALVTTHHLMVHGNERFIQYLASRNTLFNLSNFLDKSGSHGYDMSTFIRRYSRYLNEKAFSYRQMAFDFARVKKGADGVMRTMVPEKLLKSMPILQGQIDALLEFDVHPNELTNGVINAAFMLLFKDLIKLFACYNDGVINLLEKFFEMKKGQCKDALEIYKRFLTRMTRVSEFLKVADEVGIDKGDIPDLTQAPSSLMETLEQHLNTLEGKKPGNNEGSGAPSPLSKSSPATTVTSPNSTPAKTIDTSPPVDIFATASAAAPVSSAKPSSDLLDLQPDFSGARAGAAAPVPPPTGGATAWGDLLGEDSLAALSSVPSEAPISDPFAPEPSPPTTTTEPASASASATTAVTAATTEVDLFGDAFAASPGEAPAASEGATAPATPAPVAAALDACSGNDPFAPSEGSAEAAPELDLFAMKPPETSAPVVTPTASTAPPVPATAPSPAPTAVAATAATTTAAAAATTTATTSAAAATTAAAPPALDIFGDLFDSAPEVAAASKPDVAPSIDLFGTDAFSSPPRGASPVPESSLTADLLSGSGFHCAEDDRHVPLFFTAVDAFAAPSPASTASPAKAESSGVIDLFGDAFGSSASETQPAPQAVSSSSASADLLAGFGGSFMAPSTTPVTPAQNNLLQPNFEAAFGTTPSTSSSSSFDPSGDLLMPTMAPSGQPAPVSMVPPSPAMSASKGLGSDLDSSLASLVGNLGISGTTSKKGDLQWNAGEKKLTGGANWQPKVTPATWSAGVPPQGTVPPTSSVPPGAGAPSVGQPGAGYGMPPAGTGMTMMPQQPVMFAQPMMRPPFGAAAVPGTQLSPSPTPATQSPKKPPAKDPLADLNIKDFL

Molecule: AP2 α-appendage domain (residues 701–938) (from UniProt P17427 701-938) (domain or fragment)
residue-wise KD (first residue of Fig. 3D) [1]: 144 µM
residue-wise KD (second residue of Fig. 3D) [1]: 380 µM
residue-wise KD (third residue of Fig. 3D) [1]: 414 µM

Molecule: clathrin heavy chain terminal domain (residues 1–363) (from UniProt P49951 1-363) (domain or fragment)
residue-wise KD (first residue of Fig. 2E) [2]: 177 µM
residue-wise KD (fourth residue of Fig. 2E) [2]: 700 µM
residue-wise KD (second residue of Fig. 2E) [2]: 294 µM
residue-wise KD (third residue of Fig. 2E) [2]: 549 µM

B1: AP2 β2-appendage domain with linker (residues 617–951) (domain or fragment)
chain: QPQVIPSQGDLLGDLLNLDLGPPVNVPQVSSMQMGAVDLLGGGLDSLLGSDLGGGIGGSPAVGQSFIPSSVPATFAPSPTPAVVSSGLNDLFELSTGIGMAPGGYVAPKAVWLPAVKAKGLEISGTFTHRQGHIYMEMNFTNKALQHMTDFAIQFNKNSFGVIPSTPLAIHTPLMPNQSIDVSLPLNTLGPVMKMEPLNNLQVAVKNNIDVFYFSCLIPLNVLFVEDGKMERQVFLATWKDIPNENELQFQIKECHLNADTVSSKLQNNNVYTIAKRNVEGQDMLYQSLKLTNGIWILAELRIQPGNPNYTLSLKCRAPEVSQYIYQVYDSILKN
Kd [3]: 2500 nM
Kd [4]: 6.97 µM
Kd [5]: 5.1 µM
Kd [6]: 10 µM
exchange rate kex (kon [AP2β2] + koff) [6]: 662 s⁻¹
percentage of bound population of AP180 (10% AP2β2) [6]: 8.9%

B2: AP180 IDR (residues 281–898 of AP180) (domain or fragment)
chain: GHMHLNTLEGKKPGNNEGSGAPSPLSKSSPATTVTSPNSTPAKTIDTSPPVDIFATASAAAPVSSAKPSSDLLDLQPDFSGAAAGAAAPVPPPTGGATAWGDLLGEDSLAALSSVPSEAPISDPFAPEPSPPTTTTEPASASASATTAVTAATTEVDLFGDAFAASPGEAPAASEGATAPATPAPVAAALDACSGNDPFAPSEGSAEAAPELDLFAMKPPETSAPVVTPTASTAPPVPATAPSPAPTAVAATAAATTTTTAAAATTTATTSAAAAATAAAPPALDIFGDLFDSAPEVAAASKPDVAPSIDLFGTDAFSSPPRGASPVPESSLTADLLSVDAFAAPSPASTASPAKAESSGVIDLFGDAFGSSASETQPAPQAVSSSSASADLLAGFGGSFMAPSTTPVTPAQNNLLQPNFEAAFGTTPSTSSSSSFDPSGDLLMPTMAPSGQPAPVSMVPPSPAMSASKGLGSDLDSSLASLVGNLGISGTTSKKGDLQWNAGEKKLTGGANWQPKVTPATWSAGVPPQGTVPPTSSVPPGAGAPSVGQPGAGYGMPPAGTGMTMMPQQPVMFAQPMMRPPFGAAAVPGTQLSPSPTPATQSPKKPPAKDPLADLNIKDFLLEHHHHHH
Kd [7]: 4.2 µM

The remaining lines, values ahead:

Kd (AP180 399-598 (rat)): 7.8 µM
Molecule: AP2β2 K842E (domain or fragment)

Kd (AP180 399-598 (rat)): 4.9 µM
Molecule: AP2β2 Y815A (domain or fragment)

Kd (AP180 399-598 (rat)): 7.3 µM
Molecule: AP2β2 Y888A (domain or fragment)
